# Source: US20020165140A1 (ANGIOGENETICS SWEDEN, published 2002)
# Tests used:
# GAL4-HIF-1α/526-826 = molecular target: T1, GAL4-HIF-1α/526-826 (UniProt P04386 1-147; Q16665 526-826); assay: coimmunoprecipitation of 35S-IPAS with anti-GAL4 antibody, in vitro translated proteins
# T1 construct: In vitro translated
# Description: (§1) Precipitated fraction was analyzed by SDS PAGE and results were obtained by autoradiography.
# (§2) After brief centrifugation, coimmunoprecipitated proteins were analyzed by SDS-PAGE.
# GAL4 DBD = molecular target: T2, GAL4 DBD (UniProt P04386 1-147, limits assumed); assay: as above
# T2 construct: Control in the coprecipitation assay
# Description: as §1, §2
binder,measurement,setting,value
"Inhibitory PAS Domain Protein (IPAS), in vitro translated (other, 35S-labeled methionine (in the coprecipitation assay), Polypeptide of 307 amino acids; generated by in vitro translation in rabbit reticulocyte lysate; also called mouse IPAS; mIPAS) MALGLQRVRSNTELRKEKSRDAARSRRSQETEVLYQLAHTLPFARGVSAHLDKASIMRLTISYLRMHRLCAAGGKRGRATGRLLPEGPGGFRHGTHRRGRHGLPVGKCQQAPGPQSVDLCSSSLIHNPTPGTNFSLELIGHSIFDFIHPCDQEELQDALTPRPNLSKKKLEAPTERHFSLRMKSTLTSRGRTLNLKAATWKVLHCSGHMRAYKPPAQTSPAGSPRSEPPLQCLVLICEAIPQLPFHDGATLGLPQEKTPISTLFTPLWKALLCLVKRWPVQVLQGKGTESSLPSWVLWALNRKNCPG",binding result,GAL4-HIF-1α/526-826,no binding
same,binding result,GAL4 DBD,no binding
